According to publication PMC3830444:

Molecular target: FPR-chloromethyl ketone-thrombin (active site-inhibited α-thrombin) (human), P00734
Experiment: ELISA

Work on GDFEPIPEDAYDE (modifications not checked) [H6HV3_(54-66)G6 synthetic peptide] yielded an IC50 of 5 µM.
